Test system: HeLa cells
Experiment: Parkin colocalization with mitochondria scored by confocal microscopy
Assay type: cell-based
Details: for recruitment of mutant YFP-Parkin to depolarized mitochondria / recruitment of mutant YFP-Parkin to mitochondria: HeLa; for recruitment of mutant YFP-Parkin to depolarized mitochondria: CCCP 1 hr; for recruitment of mutant YFP-Parkin to mitochondria: 10 μM CCCP, 24 hours; for cells with Parkin localized to mitochondria: HeLa transfected with Flag-tagged Twinkle for 5 days
Experimental: Cultured cells seeded in borosilicate chamber slides (Thermo Fisher Scientific) were transfected or cotransfected with YFP-Parkin, ECFP-Parkin, mCherry-Parkin, DsRed-Mito (Clontech Laboratories, Inc.), pcDNA3.1 (Invitrogen), vMIA, and/or Drp1K38A constructs using Fugene 6 (Roche). Parkin-myc was a gift from M. Cookson (National Institutes of Health, Bethesda, Md.). Cells were fixed 12-24 hours after transfection with 4% paraformaldehyde in PBS. Cells were stained with following primary antibodies: mouse monoclonal cytochrome c (BD), rabbit polyclonal Tom20 (Santa Cruz Biotechnology, Inc.), mouse monoclonal Parkin PRK8 (Santa Cruz Biotechnology, Inc.), rabbit polyclonal PMP70 (Invitrogen), and/or mouse monoclonal TRAP1 (Abcam); and with the following secondary antibodies: mouse and/or rabbit Alexa 488, 594, and 633 (Invitrogen). For assessment of mitochondrial membrane potential, cells were pulsed with 50 nM Mito-Tracker red (Invitrogen) for 15 min, washed, and incubated for an additional 10 minutes before fixation or imaging. For assessment of cell metabolic potential, cell nuclei were stained with Hoechst 33342 (Invitrogen).
Fixed cells and live cells in the FLIP assay were imaged using an inverted microscope (LSM510 Meta; Carl Zeiss, Inc.) with a 63×/1.4 oil DIC Plan Apo objective at 25° C. and 37° C., respectively. For the FLIP assay, a bleach region of interest (ROI) occupying approximately one eighth of the cell was positioned over a relatively mitochondria-free portion of the cytosol. Cells were alternately bleached (488 nm using a 30-mW argon laser at 75% power and 100% transmission for 150 iterations) and imaged (488 nm at 75% power and 2% transmission) for 10 minutes (—60 cycles over the length of the experiment). Two channel prebleach and postbleach images were obtained with 488 and 594 lasers to assess the position of mitochondria before and after bleaching. Circular ROIs with diameters of ˜1 and 5 μm, respectively, were placed over the mitochondria and cytosol of the target cell, and an ROI of 10 μm was placed over the control cell. Imaging of YFP-Parkin translocation in live HeLa cells was performed on a live cell imager system (UltraView LCI; PerkinElmer) at 35° C. with a 100×/1.45 α-Plan-Fluor objective.
Image contrast and brightness were adjusted in Photoshop (Adobe). Colocalization was assessed with line scans using MetaMorph (MDS Analytical Technologies). For analysis of mitochondrial membrane potential in cells, mitochondrial voxels in each image (the cytochrome c channel threshold was ≧400 au) were segregated into Parkin-positive (the YFP-Parkin channel threshold was ≧1,100 au) or Parkin-negative subsets, and MitoTracker intensity for each voxel was measured using Volocity software (Improvision). For each cell, the mean MitoTracker intensity per voxel was calculated for the Parkin-positive and Parkin-negative subsets. The difference in mean Mito-Tracker intensity between the Parkin-positive and Parkin-negative subsets was calculated using a paired t test. Western blotting HeLa cells stably expressing YFP-Parkin, HEK293 cells, and rat cortical neurons 2 days in vitro were harvested and fractionated as described previously (Karbowski et al., J. Cell Biol. 178: 71-84, 2007). Samples were run on SDS-PAGE and immunoblotted with the following antibodies: polyclonal rabbit anti-GFP (Invitrogen), mouse monoclonal anti-Parkin (PRK8), and mouse monoclonal anti-Porin 31HL (EMD).
Confocal microscopy of fixed samples, scoring of Parkin recruitment and Parkininduced mitophagy, and live cell imaging were performed as described previously (Narendra (2008) J Cell Biol 183: 795-803). Experiments in Mfn1/2 null cells were performed as described previously with minor modifications.
Confocal microscopy of fixed samples, scoring of Parkin recruitment and Parkin-induced mitophagy, and live cell imageing were performed as described previously (Narendra (2008) J Cell Biol 183: 795-803). […]

B1: C253Y: YFP-Parkin patient mutation in conserved RING cysteine (protein, UniProt O60260 1-465, looked up, variant C253Y)
E3 ubiquitin-protein ligase …: MIVFVRFNSSHGFPVEVDSDTSIFQLKEVVAKRQGVPADQLRVIFAGKELRNDWTVQNCDLDQQSIVHIVQRPWRKGQEMNATGGDDPRNAAGGCEREPQSLTRVDLSSSVLPGDSVGLAVILHTDSRKDSPPAGSPAGRSIYNSFYVYCKGPCQRVQPGKLRVQCSTCRQATLTLTQGPSCWDDVLIPNRMSGECQSPHCPGTSAEFFFKCGAHPTSDKETSVALHLIATNSRNITCITCTDVRSPVLVFQYNSRHVICLDCFHLYCVTRLNDRQFVHDPQLGYSLPCVAGCPNSLIKELHHFRILGEEQYNRYQQYGAEECVLQMGGVLCPRPGCGAGLLPEPDQRKVTCEGGNGLGCGFAFCRECKEAYHEGECSAVFEASGTTTQAYRVDERAAEQARWEAASKETIKKTTKPCPRCHVPVEKNGGCMHMKCPQPQCRLEWCWNCGCEWNRVCMGDHWFDV
modifications: YFP fusion
notes: YFP-Parkin patient mutation in conserved RING cysteine
recruitment of mutant YFP-Parkin to depolarized mitochondria: completely disrupt

B2: C289G: YFP-Parkin patient mutation in conserved RING cysteine (protein, UniProt O60260 1-465, looked up, variant C289G)
E3 ubiquitin-protein ligase …: MIVFVRFNSSHGFPVEVDSDTSIFQLKEVVAKRQGVPADQLRVIFAGKELRNDWTVQNCDLDQQSIVHIVQRPWRKGQEMNATGGDDPRNAAGGCEREPQSLTRVDLSSSVLPGDSVGLAVILHTDSRKDSPPAGSPAGRSIYNSFYVYCKGPCQRVQPGKLRVQCSTCRQATLTLTQGPSCWDDVLIPNRMSGECQSPHCPGTSAEFFFKCGAHPTSDKETSVALHLIATNSRNITCITCTDVRSPVLVFQCNSRHVICLDCFHLYCVTRLNDRQFVHDPQLGYSLPGVAGCPNSLIKELHHFRILGEEQYNRYQQYGAEECVLQMGGVLCPRPGCGAGLLPEPDQRKVTCEGGNGLGCGFAFCRECKEAYHEGECSAVFEASGTTTQAYRVDERAAEQARWEAASKETIKKTTKPCPRCHVPVEKNGGCMHMKCPQPQCRLEWCWNCGCEWNRVCMGDHWFDV
modifications: YFP fusion
notes: as for B1
recruitment of mutant YFP-Parkin to mitochondria: Mitochondrial recruitment was seen | recruitment of mutant YFP-Parkin to depolarized mitochondria: completely disrupt

B3: C441R: YFP-Parkin patient mutation in conserved RING cysteine (protein, UniProt O60260 1-465, looked up, variant C441R)
E3 ubiquitin-protein ligase …: MIVFVRFNSSHGFPVEVDSDTSIFQLKEVVAKRQGVPADQLRVIFAGKELRNDWTVQNCDLDQQSIVHIVQRPWRKGQEMNATGGDDPRNAAGGCEREPQSLTRVDLSSSVLPGDSVGLAVILHTDSRKDSPPAGSPAGRSIYNSFYVYCKGPCQRVQPGKLRVQCSTCRQATLTLTQGPSCWDDVLIPNRMSGECQSPHCPGTSAEFFFKCGAHPTSDKETSVALHLIATNSRNITCITCTDVRSPVLVFQCNSRHVICLDCFHLYCVTRLNDRQFVHDPQLGYSLPCVAGCPNSLIKELHHFRILGEEQYNRYQQYGAEECVLQMGGVLCPRPGCGAGLLPEPDQRKVTCEGGNGLGCGFAFCRECKEAYHEGECSAVFEASGTTTQAYRVDERAAEQARWEAASKETIKKTTKPCPRCHVPVEKNGGCMHMKCPQPQRRLEWCWNCGCEWNRVCMGDHWFDV
modifications: YFP fusion
notes: as for B1
recruitment of mutant YFP-Parkin to mitochondria: Mitochondrial recruitment was seen | recruitment of mutant YFP-Parkin to depolarized mitochondria: completely disrupt

B4: Twinkle G575D: catalytically inactive mutant of mitochondrial DNA helicase Twinkle, Flag-tagged (protein, UniProt Q96RR1 32-684, looked up, variant G575D)
Twinkle mtDNA helicase: APGPPRRRYRKETLQALDMPVLPVTATEIRQYLRGHGIPFQDGHSCLRALSPFAESSQLKGQTGVTTSFSLFIDKTTGHFLCMTSLAEGSWEDFQASVEGRGDGAREGFLLSKAPEFEDSEEVRRIWNRAIPLWELPDQEEVQLADTMFGLTKVTDDTLKRFSVRYLRPARSLVFPWFSPGGSGLRGLKLLEAKCQGDGVSYEETTIPRPSAYHNLFGLPLISRRDAEVVLTSRELDSLALNQSTGLPTLTLPRGTTCLPPALLPYLEQFRRIVFWLGDDLRSWEAAKLFARKLNPKRCFLVRPGDQQPRPLEALNGGFNLSRILRTALPAWHKSIVSFRQLREEVLGELSNVEQAAGLRWSRFPDLNRILKGHRKGELTVFTGPTGSGKTTFISEYALDLCSQGVNTLWGSFEISNVRLARVMLTQFAEGRLEDQLDKYDHWADRFEDLPLYFMTFHGQQSIRTVIDTMQHAVYVYDICHVIIDNLQFMMGHEQLSTDRIAAQDYIIGVFRKFATDNNCHVTLVIHPRKEDDDKELQTASIFDSAKASQEADNVLILQDRKLVTGPGKRYLQVSKNRFDGDVGVFPLEFNKNSLTFSIPPKNKARLKKIKDDTGPVAKKPSSGKKGATTQNSEICSGQAPTPDQPDTSKRSK
modifications: Flag tag
cells with Parkin localized to mitochondria: 13.1±2.3%

B5: wild-type Twinkle: Flag-tagged wild-type mitochondrial DNA helicase Twinkle (protein, UniProt Q96RR1 32-684, looked up)
Twinkle mtDNA helicase: APGPPRRRYRKETLQALDMPVLPVTATEIRQYLRGHGIPFQDGHSCLRALSPFAESSQLKGQTGVTTSFSLFIDKTTGHFLCMTSLAEGSWEDFQASVEGRGDGAREGFLLSKAPEFEDSEEVRRIWNRAIPLWELPDQEEVQLADTMFGLTKVTDDTLKRFSVRYLRPARSLVFPWFSPGGSGLRGLKLLEAKCQGDGVSYEETTIPRPSAYHNLFGLPLISRRDAEVVLTSRELDSLALNQSTGLPTLTLPRGTTCLPPALLPYLEQFRRIVFWLGDDLRSWEAAKLFARKLNPKRCFLVRPGDQQPRPLEALNGGFNLSRILRTALPAWHKSIVSFRQLREEVLGELSNVEQAAGLRWSRFPDLNRILKGHRKGELTVFTGPTGSGKTTFISEYALDLCSQGVNTLWGSFEISNVRLARVMLTQFAEGRLEDQLDKYDHWADRFEDLPLYFMTFHGQQSIRTVIDTMQHAVYVYDICHVIIDNLQFMMGHEQLSTDRIAAQDYIIGVFRKFATDNNCHVTLVIHPRKEDDDKELQTASIFGSAKASQEADNVLILQDRKLVTGPGKRYLQVSKNRFDGDVGVFPLEFNKNSLTFSIPPKNKARLKKIKDDTGPVAKKPSSGKKGATTQNSEICSGQAPTPDQPDTSKRSK
modifications: Flag tag
cells with Parkin localized to mitochondria: 6.7±1.2%

Source: US20120277286A1, “COMPOSITIONS AND METHODS FOR THE TREATMENT OR PREVENTION OF MITOCHONDRIAL DISEASES” (The Government of the USA, as represented by the Secretary, …, priority 2009, published 2012)
